# Key:
# [1] = system: skeletal homeostasis; details: cited from earlier work
# [2] = Solubility of PTH as a function of pH; assay type: physicochemical
# Text: While not being bound by any theory, it is believed that this phenomena was due to the salts (e.g., MW ˜60) in the PTH solution diffusing into the physiological solution at a rate that exceeded the rate of diffusion of the PTH (e.g., MW ˜4000) due, for example, to the molecular weight (MW) dependence of diffusion rate, to such an extent that the pH of the PTH solution increased to a point exceeding that required to keep the PTH in solution. (For example, at pH 3, the PTH has a solubility of about 100 μg/ml and at pH 7, the PTH has a solubility of about 20 μg/ml.)
substance,measurement,setting,value
parathyroid hormone [PTH],bone volume,[1]; daily dose given as one single injection,dose dependent increase
same,effect on serum calcium,[1]; in vivo,dose dependent increase
same,effect on serum calcium levels,[1]; in vivo,practically no effect
same,result on bone,[1]; same daily dose by continuous infusion with subcutaneous mini-osmotic pump,bone loss
same,solubility,[2]; pH 3,about 100 μg/ml
same,solubility,[2]; pH 7,about 20 μg/ml
